The source of these data is IntAct's records for PubMed 18560563.

To fix the notation:
B1: Bifunctional UDP-N-acetylglucosamine 2-epimerase/N-acetylmannosamine kinase (Homo sapiens), Q9Y223 (parent)
chain: MEKNGNNRKLRVCVATCNRADYSKLAPIMFGIKTEPEFFELDVVVLGSHLIDDYGNTYRMIEQDDFDINTRLHTIVRGEDEAAMVESVGLALVKLPDVLNRLKPDIMIVHGDRFDALALATSAALMNIRILHIEGGEVSGTIDDSIRHAITKLAHYHVCCTRSAEQHLISMCEDHDRILLAGCPSYDKLLSAKNKDYMSIIRMWLGDDVKSKDYIVALQHPVTTDIKHSIKMFELTLDALISFNKRTLVLFPNIDAGSKEMVRVMRKKGIEHHPNFRAVKHVPFDQFIQLVAHAGCMIGNSSCGVREVGAFGTPVINLGTRQIGRETGENVLHVRDADTQDKILQALHLQFGKQYPCSKIYGDGNAVPRILKFLKSIDLQEPLQKKFCFPPVKENISQDIDHILETLSALAVDLGGTNLRVAIVSMKGEIVKKYTQFNPKTYEERINLILQMCVEAAAEAVKLNCRILGVGISTGGRVNPREGIVLHSTKLIQEWNSVDLRTPLSDTLHLPVWVDNDGNCAALAERKFGQGKGLENFVTLITGTGIGGGIIHQHELIHGSSFCAAELGHLVVSLDGPDCSCGSHGCIEAYASGMALQREAKKLHDEDLLLVEGMSVPKDEAVGALHLIQAAKLGNAKAQSILRTAGTALGLGVVNILHTMNPSLVILSGVLASHYIHIVKDVIRQQALSSVQDVDVVVSDLVDPALLGAASMVLDYTTRRIY

The variants in the assay derive from B1. The note with it: with actn1_human ACTN1, P12814.
Sequence of actn1_human ACTN1, P12814 (P12814 whole entry): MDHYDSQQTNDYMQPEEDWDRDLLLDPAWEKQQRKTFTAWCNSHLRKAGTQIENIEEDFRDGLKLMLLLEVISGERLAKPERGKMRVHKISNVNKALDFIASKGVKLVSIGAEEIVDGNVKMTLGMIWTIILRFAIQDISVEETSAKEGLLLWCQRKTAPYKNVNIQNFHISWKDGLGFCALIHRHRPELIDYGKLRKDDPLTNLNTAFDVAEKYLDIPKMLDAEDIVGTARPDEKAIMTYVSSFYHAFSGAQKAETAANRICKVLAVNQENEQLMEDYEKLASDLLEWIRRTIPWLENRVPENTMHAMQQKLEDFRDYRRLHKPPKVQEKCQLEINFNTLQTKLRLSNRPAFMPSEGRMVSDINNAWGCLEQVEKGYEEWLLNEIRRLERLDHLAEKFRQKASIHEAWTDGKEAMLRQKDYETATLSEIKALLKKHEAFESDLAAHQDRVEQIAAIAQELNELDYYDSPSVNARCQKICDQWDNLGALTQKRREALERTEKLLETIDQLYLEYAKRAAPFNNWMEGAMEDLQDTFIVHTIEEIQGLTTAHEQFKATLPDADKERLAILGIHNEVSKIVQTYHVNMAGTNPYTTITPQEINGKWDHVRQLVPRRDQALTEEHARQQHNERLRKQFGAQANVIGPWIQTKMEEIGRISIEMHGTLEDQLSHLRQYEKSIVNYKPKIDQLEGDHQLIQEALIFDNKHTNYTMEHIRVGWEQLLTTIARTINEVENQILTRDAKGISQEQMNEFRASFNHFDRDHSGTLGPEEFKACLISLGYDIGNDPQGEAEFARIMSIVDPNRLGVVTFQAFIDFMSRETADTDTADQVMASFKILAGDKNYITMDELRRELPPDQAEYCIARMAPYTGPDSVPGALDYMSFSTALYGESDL
Turning to M712T, the “effect of a mutation on the interaction” value is reported as “with no effect”.
